Reference: publication PMC8651051 (Science Translational Medicine, 2021)

How the values were obtained:
[1] = biological target: SARS-CoV-2 RBD, truncated version (residues 333 to 529) used for crystallization (SARS-CoV-2, UniProt P0DTC2); assay: crystal structure; conditions: both partners purified
[2] = biological target: SARS-CoV-2 RBD, truncated version (residues 333 to 529) (SARS-CoV-2, UniProt P0DTC2); assay: crystal structure; conditions: both partners purified

| Binder | binding result [1] | binding result [2] |
| --- | --- | --- |
| COVA1-16 Fab (Fab, V domains shown) VH: QVQLVQSGAEVKKPGASVKVSCKASGYTFTSYYMHWVRQAPGQGLEWMGIINSSGGSTSYAQKFQGRVTMTRDTSTSTVYMELSSLRSEDTAVYYCARPPRNYYDRSGYYQRAEYFQHWGQGTLVTVSS VL: DIQLTQSPSSLSASVGDRVTITCQASQDISNYLNWYQQRPGKAPKLLIYDASNLETGVPSRFSGSGSGTDFTFTISSLQPEDIATYYCQQYDNPPLTFGGGTKLEIK [COVA1-16 Fab, listing 1 of 2 here] | binds | – |
| COVA1-16 Fab (Fab, V domains shown) VH: QVQLVQSGAEVKKPGASVKVSCKASGYTFTSYYMHWVRQAPGQGLEWMGIINSSGGSTSYAQKFQGRVTMTRDTSTSTVYMELSSLRSEDTAVYYCARPPRNYYDRSGYYQRAEYFQHWGQGTLVTVSS VL: DIQLTQSPSSLSASVGDRVTITCQASQDISNYLNWYQQRPGKAPKLLIYDASNLETGVPSRFSGSGSGTDFTFTISSLQPEDIATYYCQQYDNPPLTFGGGTKLEIK [COVA1-16 Fab, listing 2 of 2 here] | – | binds |
